Where no end group is shown, it is not given here. [ ]: non-standard residue; d: D form. 2Thi = N[C@@H](Cc1cccs1)C(=O)O
B1: Lys-BKm09 (peptide)
peptide: [2Thi]SPFR
B2: Lys-BKm10 (peptide)
peptide: SPFR
B3: Lys-BKm13 (peptide)
peptide: CRRPPG[2Thi]SPFR
B4: Lys-BKm15 (peptide)
peptide: CRPPG[2Thi]SPFR
B5: Lys-BKm16 (peptide)
peptide: CRRRPPG[2Thi]SPFR
B6: Lys-BKm02 (peptide)
peptide: RPPG[2Thi]SPFR
B7: Lys-BKm05 (peptide)
peptide: KRPPGXSPF
modifications: {THI} (β-2-thiophenylalanine) at position 6: KRPPG{THI}SPF
B8: Lys-BKm08 (peptide)
peptide: PG[2Thi]SPFR

What follows are binders tested against B2 receptor (assay: cell-based or functional assay).
Sequence of B2 receptor (P30411 whole entry): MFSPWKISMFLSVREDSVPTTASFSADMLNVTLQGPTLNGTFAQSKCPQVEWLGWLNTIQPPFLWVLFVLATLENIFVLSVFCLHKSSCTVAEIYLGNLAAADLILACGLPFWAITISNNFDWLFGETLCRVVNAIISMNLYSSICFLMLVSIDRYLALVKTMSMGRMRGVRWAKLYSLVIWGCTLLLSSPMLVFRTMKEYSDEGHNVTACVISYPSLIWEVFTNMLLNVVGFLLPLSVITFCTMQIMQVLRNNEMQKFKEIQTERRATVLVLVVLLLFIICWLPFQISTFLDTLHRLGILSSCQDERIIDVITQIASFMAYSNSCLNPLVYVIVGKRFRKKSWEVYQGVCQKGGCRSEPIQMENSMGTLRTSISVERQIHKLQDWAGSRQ

B1 and B2 are the same in Relative affinity activity (B2-NFAT-CHO-K1 luciferase reporter gene assay, from EC50): 0% for the first, 0% for the second.

First: B3
Second: B4
The Relative affinity activity (B2-NFAT-CHO-K1 luciferase reporter gene assay, from EC50) of the first is lower: 115% for the first, 125% for the second.

Compared with B5, B6 is lower in Relative affinity activity (B2-NFAT-CHO-K1 luciferase reporter gene assay, from EC50): 120% for the first, 100% for the second.

B7 and B8 cannot be ordered by Relative affinity activity (B2-NFAT-CHO-K1 luciferase reporter gene assay, from EC50): under 10% for the first, under 10% for the second.

From US20250295792A1, “POLYETHYLENE GLYCOL-MODIFIED FORM OF KININ OR DERIVATIVE THEREOF AND PHARMACEUTICAL USE THEREOF” (ZonHon Biopharma Institute, Inc., priority 2022, published 2025)
